What was measured:
Assay in all cases: pull-down; GST-Rab11 proteins immobilized on glutathione-Sepharose beads; lysates of cells expressing GFP-SPIN90 in buffer B (25 mM HEPES, 100 mM NaCl, 5 mM MgCl2, 1% NP-40, 10% glycerol); 2 h at 4 °C; immunoblot with anti-GFP
GST-Rab11 Q70L (human) = GST-Rab11 Q70L (human) (UniProt P62491)
GST-Rab11 S25N (human) = GST-Rab11 S25N (human) (UniProt P62491)
GST-Rab11 WT (human) = GST-Rab11 WT (human) (UniProt P62491)

GFP-SPIN90 C-term (C) (domain or fragment)
relative band intensity (normalized to GST-Rab11 WT with SPIN90 FL) (GST-Rab11 Q70L (human)): 1.43 | relative band intensity (normalized to GST-Rab11 WT with SPIN90 FL) (GST-Rab11 S25N (human)): 2.89 | relative band intensity (normalized to GST-Rab11 WT with SPIN90 FL) (GST-Rab11 WT (human)): 1.8
